In publication PMC8016844, “Grb2 binding induces phosphorylation-independent activation of Shp2” (Communications Biology, 2021):

Biological target: T1, Shp2 N-terminal SH2 domain (Shp2_(NSH2)) (UniProt Q06124 6-102)
T1 construct: Shp2 (PTPN11), N-terminal SH2 domain; Atto 488 labelled in MST; uniformly 15N-labelled in the NMR titration; Perturbed residues up to Y100 are named, so the construct reaches at least residue 100; also called Shp2-NSH2 domain; source: E. coli BL21 (DE3), pET28b, purified (Talon buffers, Superdex SD75)
T1 sequence (looked up): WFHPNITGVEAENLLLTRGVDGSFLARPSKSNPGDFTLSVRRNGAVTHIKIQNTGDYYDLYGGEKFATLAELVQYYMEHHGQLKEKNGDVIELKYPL
Experiment: MST; target protein labelled with Atto 488 NHS ester, 100 nM; unlabelled ligand serially diluted; Monolith NT.115; 25 °C; 20 mM HEPES pH 7.5, 150 mM NaCl, 0.5 mM TCEP, 0.005% Tween 20
Conditions: both partners purified

B1: isolated NSH3 domain of Grb2 (Grb2_(NSH3)) (domain or fragment)
chain: MEAIAKYDFKATADDELSFKRGDILKVLNEECDQNWYKAELNGKDGFIPKNYIEMKPH
A Kd of 422 ± 21.5 µM was found for B1 in this work.
